B1: bsAb19139D (bispecific antibody, V domains shown)
VH 1: QVQLVESGGGVVQPGRSLRLSCTASGFTFSSYAMYWVRQAPGKGLEWVSVIYYDGSYKYYADSVKGRFTISRDNSKNTLYLQMDSLRAEDTAVYYCASYNWNYWYFDFWGRGTLVTVSS
VH 2: QVQLVESGGGVVQPGGSLRLSCAASGFTFSTYDIHWVRQAPGKGLEWVAVISFDGSNRNYGDSVKGRFTISRDNSDNTLFLEMNNLRFEDTAVYYCAKEGYGVDFQHWGQGTLVTVSS
VL: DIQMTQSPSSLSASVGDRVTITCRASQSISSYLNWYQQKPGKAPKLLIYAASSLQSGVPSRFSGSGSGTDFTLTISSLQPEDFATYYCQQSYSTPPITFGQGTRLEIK
notes: two different heavy chains with a common light chain
B2: bsAb19140D (bispecific antibody, V domains shown)
VH 1: QVQLVESGGGVVQPGRSLRLSCTASGFTFSSYAMYWVRQAPGKGLEWVSVIYYDGSYKYYADSVKGRFTISRDNSKNTLYLQMDSLRAEDTAVYYCASYNWNYWYFDFWGRGTLVTVSS
VH 2: QVQLQESGPGLVKPSETLSLTCTVSGGSISNYYWTWIRQPPGKGLEWIGHISNSGTTNYNPSLKSRVTISVDTSKNQFSLKLTSVTAADTAVYYCARLPLGIAAVDTDYYYYFGMDVWGQGTTVTVSS
VL: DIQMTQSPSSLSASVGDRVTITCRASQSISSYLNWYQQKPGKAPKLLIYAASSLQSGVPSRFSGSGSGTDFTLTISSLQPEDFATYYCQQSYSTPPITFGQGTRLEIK
notes: common light chain
B3: bsAb19141D (bispecific antibody, V domains shown)
VH 1: QVQLVESGGGVVQPGRSLRLSCTASGFTFSSYAMYWVRQAPGKGLEWVSVIYYDGSYKYYADSVKGRFTISRDNSKNTLYLQMDSLRAEDTAVYYCASYNWNYWYFDFWGRGTLVTVSS
VH 2: EVQLVESGGGVVRPGGSLRLSCTASGFTFDDYGMSWVRQAPGKGLEWVSGINWNGGRTEYADAVKGRFIISRDNAKNSLYLQMNSLRAEDTALYFCARTELRWDYWGQGTLVTVSS
VL: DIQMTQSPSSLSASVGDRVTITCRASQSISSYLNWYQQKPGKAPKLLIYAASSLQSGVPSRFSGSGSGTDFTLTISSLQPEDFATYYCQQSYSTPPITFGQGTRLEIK
notes: common light chain
B4: bsAb19142D (bispecific antibody, V domains shown)
VH 1: QVQLVESGGGVVQPGRSLRLSCTASGFTFSSYAMYWVRQAPGKGLEWVSVIYYDGSYKYYADSVKGRFTISRDNSKNTLYLQMDSLRAEDTAVYYCASYNWNYWYFDFWGRGTLVTVSS
VH 2: EVQLVESGGGLVQPGGSLRLSCAASGLTFSSYEMNWVRQAPGKGLEWVSHISSAGSTKYYADSVKGRFTISRDNAKNSLFLQMNSLRAEDTAIYYCAGYNYAYYYFGVDVWGQGTTVTVSS
VL: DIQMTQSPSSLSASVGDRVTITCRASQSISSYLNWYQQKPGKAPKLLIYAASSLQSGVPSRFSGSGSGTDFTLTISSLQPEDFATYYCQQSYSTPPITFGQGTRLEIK
notes: common light chain
B5: bsAb19143D (bispecific antibody, V domains shown)
VH 1: QVQLVESGGGVVQPGRSLRLSCTASGFTFSSYAMYWVRQAPGKGLEWVSVIYYDGSYKYYADSVKGRFTISRDNSKNTLYLQMDSLRAEDTAVYYCASYNWNYWYFDFWGRGTLVTVSS
VH 2: QLQLQESGPGLVKPSETLSLICTVSGGSISSNNYYWGWIRQPPGKGLEWIGNLYGSGSTYYNPSLKSRVTISVDTSKNQFSLKLSFVTAADTAVYHCARWDTNGGAFDIWGQGTMVTVSS
VL: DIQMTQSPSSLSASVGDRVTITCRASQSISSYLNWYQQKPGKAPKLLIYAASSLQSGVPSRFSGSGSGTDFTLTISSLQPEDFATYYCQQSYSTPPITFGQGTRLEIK
notes: common light chain
B6: bsAb19144D (bispecific antibody, V domains shown)
VH 1: QVQLVESGGGVVQPGRSLRLSCTASGFTFSSYAMYWVRQAPGKGLEWVSVIYYDGSYKYYADSVKGRFTISRDNSKNTLYLQMDSLRAEDTAVYYCASYNWNYWYFDFWGRGTLVTVSS
VH 2: QVQLVQSGAEVKKPGASVKVSCKASGYTFTSLGISWVRQAPGQGLEWMGWISAYSGNRDYAQKFQGRVTMTTDTSTSTAYMELRSLRSDDTAVYYCARSLRFDYWGQGTLVTVSS
VL: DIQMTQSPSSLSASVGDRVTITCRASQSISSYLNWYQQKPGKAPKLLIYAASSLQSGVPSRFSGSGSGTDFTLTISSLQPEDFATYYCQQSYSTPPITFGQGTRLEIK
notes: common light chain
B7: bsAb19145D (bispecific antibody, V domains shown)
VH 1: QVQLVESGGGVVQPGRSLRLSCTASGFTFSSYAMYWVRQAPGKGLEWVSVIYYDGSYKYYADSVKGRFTISRDNSKNTLYLQMDSLRAEDTAVYYCASYNWNYWYFDFWGRGTLVTVSS
VH 2: EVQLVESGGGLVQPGRSLRLSCAASGFTLDDFAMHWVRQAPGKGLEWVSGISWNSGNIGYADSVKGRFTISRDNARNSLYLQMNSLRAEDTALYYCTSGYYLYYAMDVWGQGTTVTVSS
VL: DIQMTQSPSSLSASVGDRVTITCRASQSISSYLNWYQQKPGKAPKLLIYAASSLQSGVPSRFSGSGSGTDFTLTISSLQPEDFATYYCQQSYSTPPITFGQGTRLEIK
notes: common light chain

Key:
[1] = biological target: T1, human LEPR extracellular domain expressed with a C-terminal myc-myc-hexahistidine tag (human, UniProt P48357 22-839); test: SPR Biacore 4000, bsAb captured by anti-human Fc, 25 C
T1 construct: Monomeric reagent; the whole entry is the construct with its tag; also called hLEPR-MMH; hLEPR.mmh
Method: (§1) Equilibrium dissociation constants (KD values) for LEPR and GP130 binding to purified anti-LEPR/GP130 bispecific antibodies were determined using a real-time surface plasmon resonance biosensor using a Biacore 4000 instrument. All binding studies were performed in 10 mM HEPES, 150 mM NaCl, 3 mM EDTA, and 0.05% v/v Surfactant Tween-20, pH 7.4 (HBS-ET) running buffer at 25° C. and 37° C. The Biacore sensor surface was first derivatized by amine coupling with a monoclonal mouse anti-human Fc antibody (GE, #BR-1008-39) to capture anti-LEPR/GP130 bispecific antibodies. […] Different concentrations of LEPR or GP130 reagents were first prepared in HBS-ET running buffer (100 nM-3.7 nM; 3-fold serial dilution) and were injected over anti-human Fc captured anti-LEPR/GP130 bispecific antibody surface for 4 minutes at a flow rate of 30 μL/minute, while the dissociation of bispecific antibody bound LEPR or GP130 reagent was monitored for 10 minutes in HBS-ET running buffer. Kinetic association (kₐ) and dissociation (kd) rate constants were determined by fitting the real-time binding sensorgrams to a 1:1 binding model with mass transport limitation using Scrubber 2.0c curve-fitting software. Binding dissociation equilibrium constants (KD) and dissociative half-lives (t ½) were calculated from the kinetic rate constants as: […]

[2] = biological target: T2, Macaca Fascicularis LEPR extracellular domain expressed with a C-terminal myc-myc-hexahistidine tag (Macaca fascicularis, UniProt Q9MYL0 22-837 (rhesus entry)); test: as above
T2 construct: Monomeric reagent; the whole entry is the construct with its tag; also called mfLEPR-MMH
Method: as §1

[3] = biological target: T1, human LEPR extracellular domain …; test: SPR Biacore 4000, bsAb captured by anti-human Fc, 37 C
Method: as §1

[4] = biological target: T2, Macaca Fascicularis LEPR extracellular …; test: as above
Method: as §1

T1 sequence (P48357 other isoform, or with tags, fused parts or gaps): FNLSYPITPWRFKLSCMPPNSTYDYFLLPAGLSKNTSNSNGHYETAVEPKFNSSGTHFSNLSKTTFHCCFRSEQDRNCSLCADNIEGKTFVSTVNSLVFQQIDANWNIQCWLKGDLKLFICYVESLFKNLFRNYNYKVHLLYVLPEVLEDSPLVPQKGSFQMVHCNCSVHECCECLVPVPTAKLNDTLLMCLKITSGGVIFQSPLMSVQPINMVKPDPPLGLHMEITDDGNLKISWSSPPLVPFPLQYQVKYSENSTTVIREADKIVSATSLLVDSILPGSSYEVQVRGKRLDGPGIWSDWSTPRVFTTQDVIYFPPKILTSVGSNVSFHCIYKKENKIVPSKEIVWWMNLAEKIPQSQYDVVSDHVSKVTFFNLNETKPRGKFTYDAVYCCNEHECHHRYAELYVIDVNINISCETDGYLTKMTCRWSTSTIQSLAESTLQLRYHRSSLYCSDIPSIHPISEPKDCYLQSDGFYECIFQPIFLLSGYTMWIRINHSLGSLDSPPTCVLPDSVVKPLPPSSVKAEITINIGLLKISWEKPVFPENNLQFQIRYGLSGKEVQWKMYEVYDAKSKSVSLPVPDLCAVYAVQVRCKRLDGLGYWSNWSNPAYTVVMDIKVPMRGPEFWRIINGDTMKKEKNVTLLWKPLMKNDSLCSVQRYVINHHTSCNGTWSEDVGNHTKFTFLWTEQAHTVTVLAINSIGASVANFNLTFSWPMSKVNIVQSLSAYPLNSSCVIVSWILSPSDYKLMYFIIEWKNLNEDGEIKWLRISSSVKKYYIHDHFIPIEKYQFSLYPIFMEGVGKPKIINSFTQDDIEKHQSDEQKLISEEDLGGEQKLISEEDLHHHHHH
T2 sequence (Q9MYL0 other isoform, or with tags, fused parts or gaps): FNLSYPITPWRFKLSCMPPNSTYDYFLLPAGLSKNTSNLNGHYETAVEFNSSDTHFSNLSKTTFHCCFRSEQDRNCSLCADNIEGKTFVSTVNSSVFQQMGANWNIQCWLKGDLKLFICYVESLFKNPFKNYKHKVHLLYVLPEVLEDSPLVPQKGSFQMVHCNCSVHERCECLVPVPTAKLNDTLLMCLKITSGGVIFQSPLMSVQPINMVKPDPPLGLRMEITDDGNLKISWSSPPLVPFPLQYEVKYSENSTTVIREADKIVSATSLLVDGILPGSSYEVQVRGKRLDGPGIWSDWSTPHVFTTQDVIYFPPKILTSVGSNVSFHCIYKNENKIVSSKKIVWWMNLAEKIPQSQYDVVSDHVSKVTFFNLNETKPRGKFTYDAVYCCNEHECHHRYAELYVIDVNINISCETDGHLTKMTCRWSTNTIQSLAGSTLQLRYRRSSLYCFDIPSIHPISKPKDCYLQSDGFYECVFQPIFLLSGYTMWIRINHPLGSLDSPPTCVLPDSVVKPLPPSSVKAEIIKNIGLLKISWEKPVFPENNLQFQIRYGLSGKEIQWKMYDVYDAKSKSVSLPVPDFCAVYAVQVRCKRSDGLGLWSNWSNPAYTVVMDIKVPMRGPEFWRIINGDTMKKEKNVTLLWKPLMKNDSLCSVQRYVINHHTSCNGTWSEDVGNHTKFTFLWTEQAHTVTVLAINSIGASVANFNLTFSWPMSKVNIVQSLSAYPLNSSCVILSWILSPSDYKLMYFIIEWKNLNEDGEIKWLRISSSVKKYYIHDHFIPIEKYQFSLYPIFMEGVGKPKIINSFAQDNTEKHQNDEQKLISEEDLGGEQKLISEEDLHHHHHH

| Binder | 100 nM hLEPR-MMH Bound (RU) [1] [RU] | Kd [1] [nM] | koff [1] [s⁻¹] | kon [1] [M⁻¹ s⁻¹] | t½ [1] [min] | 100 nM mfLEPR-MMH Bound (RU) [2] [RU] | Kd [2] [nM] | koff [2] [s⁻¹] | kon [2] [M⁻¹ s⁻¹] | t½ [2] [min] | 100 nM hLEPR-MMH Bound (RU) [3] [RU] | Kd [3] [nM] | koff [3] [s⁻¹] | kon [3] [M⁻¹ s⁻¹] | t½ [3] [min] | 100 nM mfLEPR-MMH Bound (RU) [4] [RU] | Kd [4] [nM] | koff [4] [s⁻¹] | kon [4] [M⁻¹ s⁻¹] | t½ [4] [min] |
| --- | --- | --- | --- | --- | --- | --- | --- | --- | --- | --- | --- | --- | --- | --- | --- | --- | --- | --- | --- | --- |
| B1 | 41 | 7.09 | 0.000171 | 24100 | 68 | 103 | 2.93 | 0.000128 | 43600 | 90 | 67 | 21.2 | 0.000762 | 35800 | 15 | 163 | 5.42 | 0.000559 | 103000 | 21 |
| B2 | 47 | 7.36 | 0.00018 | 24500 | 64 | 112 | 2.69 | 0.000121 | 45000 | 95 | 75 | 21.4 | 0.000818 | 38200 | 14 | 175 | 5.6 | 0.000572 | 102000 | 20 |
| B3 | 45 | 5.91 | 0.000151 | 25400 | 77 | 110 | 2.86 | 0.000124 | 43300 | 93 | 74 | 16.6 | 0.000589 | 35400 | 20 | 173 | 5.05 | 0.000522 | 103000 | 22 |
| B4 | 46 | 7.76 | 0.000175 | 22500 | 66 | 112 | 2.74 | 0.000126 | 45900 | 92 | 74 | 18.6 | 0.000633 | 34000 | 18 | 172 | 5.57 | 0.000529 | 94900 | 22 |
| B5 | 45 | 7.31 | 0.000182 | 24900 | 64 | 111 | 3.04 | 0.000136 | 44800 | 85 | 72 | 21.5 | 0.000763 | 35500 | 15 | 171 | 5.74 | 0.000551 | 95900 | 21 |
| B6 | 48 | 6.48 | 0.000159 | 24600 | 73 | 114 | 3.02 | 0.000124 | 41100 | 93 | 78 | 16.2 | 0.000597 | 36800 | 19 | 178 | 5.22 | 0.000517 | 99100 | 22 |
| B7 | 41 | 6.62 | 0.000165 | 24900 | 70 | 102 | 2.75 | 0.000123 | 44900 | 94 | 66 | 20.8 | 0.000805 | 38600 | 14 | 162 | 5.48 | 0.000566 | 103000 | 20 |
